Results: patent publication US6558922B1, “Methods and compositions for production of floral scent compounds” (Purdue Research Foundation, priority 1999, dated 2003)
Read-outs that look alike come from different tables or passages of the source.

Key:
BAMT [1] = target: T1, BAMT (Antirrhinum majus, UniProt Q9FYZ9); test: BAMT enzyme assay, substrate specificity of plant-purified BAMT (fraction after MonoQ); assay type: biochemical; conditions: plant BAMT purified through MonoQ, compound tested as substrate instead of benzoic acid
T1 construct: The enzyme activity was purified from upper and lower petal lobes of 5- to 10-day-old snapdragon flowers; from tissue; host or cells: upper and lower petal lobes of 5- to 10-day-old snapdragon flowers
T1 sequence (Q9FYZ9 1-364): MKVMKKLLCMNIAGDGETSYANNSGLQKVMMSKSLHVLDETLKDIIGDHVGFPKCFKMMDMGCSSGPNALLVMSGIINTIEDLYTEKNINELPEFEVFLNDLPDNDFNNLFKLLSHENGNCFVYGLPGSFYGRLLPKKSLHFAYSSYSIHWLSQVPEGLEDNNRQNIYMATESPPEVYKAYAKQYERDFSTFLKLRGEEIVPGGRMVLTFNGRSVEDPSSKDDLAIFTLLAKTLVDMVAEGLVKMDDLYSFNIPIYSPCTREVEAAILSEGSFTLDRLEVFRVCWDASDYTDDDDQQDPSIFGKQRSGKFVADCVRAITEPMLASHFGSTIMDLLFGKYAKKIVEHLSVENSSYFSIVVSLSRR
Source text: The raw data (counts per minute) were converted to picokatals (picomoles of product produced per second) based on the specific activity of the substrate and efficiency of counting. Controls included assays with boiled protein extracts and without substrate, and background radioactivity produced in such assays was subtracted from all of the results.
The enzyme activity was purified from upper and lower petal lobes of 5- to 10-day-old snapdragon flowers in a series of chromatographic steps involving a DEAE anion exchange column (DE53, Whatman International, Maidstone, England), phenyl Sepharose 6FF (low sub, level of phenyl substitution 20 μmole per ml gel) column (Pharmacia Biotech, Piscataway, N.J.), and another anion exchange column, MonoQ, on Pharmacia's fast-performance liquid chromatography system. A complete description of the purification protocol is described in Example 7.

BAMT [2] = test: Effectors: BAMT enzyme assay with cations in assay buffer; assay type: biochemical, Antirrhinum majus; conditions: for Stimulation of BAMT activity (factor): cation at 5 mM in assay buffer
BAMT [3] = target: T1, BAMT; test: BAMT activity with different substrates in lysates of E. coli expressing BAMT cDNA; assay type: biochemical; conditions: lysates of E. coli cells expressing BAMT
Source text: The raw data (counts per minute) were converted to picokatals (picomoles of product produced per second) based on the specific activity of the substrate and efficiency of counting.
(Yamaguchi et al., 1996).

E. coli BAMT protein = target: T2, E. coli BAMT protein (Antirrhinum majus, UniProt Q9FYZ9); test: Product inhibition kinetics of methylation reaction by SAH
T2 sequence (Q9FYZ9 1-364): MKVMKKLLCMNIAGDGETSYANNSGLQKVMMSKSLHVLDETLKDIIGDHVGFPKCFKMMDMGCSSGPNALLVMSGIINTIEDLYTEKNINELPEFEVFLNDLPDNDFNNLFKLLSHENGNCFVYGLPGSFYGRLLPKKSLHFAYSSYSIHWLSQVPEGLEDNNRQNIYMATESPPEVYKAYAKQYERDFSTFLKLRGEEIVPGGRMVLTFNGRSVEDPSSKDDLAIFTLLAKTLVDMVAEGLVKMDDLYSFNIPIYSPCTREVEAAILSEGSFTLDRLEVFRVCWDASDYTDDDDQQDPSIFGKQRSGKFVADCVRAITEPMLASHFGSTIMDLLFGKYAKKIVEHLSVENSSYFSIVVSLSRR
Source text: Linear regressions were fitted to the data in double-reciprocal plots. Replots of the data were used to determine the kinetic parameters.

BAMT [4] = test: Kinetic properties of purified plant and E. coli expressed BAMT proteins; assay type: biochemical, Antirrhinum majus; conditions: purified protein; for KmSAM: Table 4
BAMT [5] = target: T1, BAMT; test: Specific activity of BAMT purified from snapdragon petals; assay type: biochemical; conditions: from 25 g fresh petal material after Mono-Q
Method: After the enzyme was loaded, the column was washed with 3 mL 300 mM KCl in buffer A and eluted with a linear reverse gradient (4 mL) from 300 mM KCl in buffer A to water followed by an additional 11 mL of water. Fractions of 0.7 ml were collected into tubes containing 100 μL 1 M KCl, 100 μL glycerol, 100 μL of 0.5 M Bis-Tris-HCl, pH 6.9 and 1 μL of 14 M β-mercaptoethanol. […] The column was previously equilibrate with 100 mM KCl in buffer A. After loading the protein onto the column, the column was washed with 100 mM KCl in buffer A and the bound protein was eluted using a 10 mL linear (100-400 mM) gradient of KCl in buffer A followed by an additional 5 mL of buffer A containing 400 mM KCl, at flow rate of 0.25 mL/min. The enzyme consistently eluted at about 360 mM KCl. Fractions (0.5 mL each) were collected and protein content and purity were examined by SDS-PAGE gel electrophoresis followed by staining of the gel with Coomassie Brilliant Blue. Fractions which had the largest amount of pure protein were used for N-terminal sequencing, internal peptide sequencing, and initial enzyme characterization.

BAMT [6] = tested on: BAMT
Method: The optimum pH for BAMT activity was determined using two buffer systems. Reactions were carried out in 50 mM Tris-HCl buffer with pH ranging from 6.5 to 9.0 and in 50 mM Tris/Na phosphate/Na citrate buffer with pH ranging from 4.0 to 9.5. Final results are an average of four independent assays.

[7] = target: the molecule itself; test: gel filtration on Superdex 200-HR (100 kDa native) against SDS-PAGE (49 kDa subunit)
BAMT [8] = conditions: read-out: Km of plant BAMT protein for benzoic acid; Murfitt, et al., 2000; cited from earlier work
BAMT [9] = test: Specific activity of plant BAMT expressed in E. coli BL21 (DE3) cells
Method: The E. coli.-expressed BAMT protein was purified by nickel-based affinity chromatography (2.5 ml bed volume) according to the manufacturer's protocol (Novagen, Inc).

SAMT = target: T3, SAMT (Clarkia breweri, UniProt Q9SPV4); conditions: Ross et al., 1999, cited from earlier work
T3 sequence (Q9SPV4 1-359): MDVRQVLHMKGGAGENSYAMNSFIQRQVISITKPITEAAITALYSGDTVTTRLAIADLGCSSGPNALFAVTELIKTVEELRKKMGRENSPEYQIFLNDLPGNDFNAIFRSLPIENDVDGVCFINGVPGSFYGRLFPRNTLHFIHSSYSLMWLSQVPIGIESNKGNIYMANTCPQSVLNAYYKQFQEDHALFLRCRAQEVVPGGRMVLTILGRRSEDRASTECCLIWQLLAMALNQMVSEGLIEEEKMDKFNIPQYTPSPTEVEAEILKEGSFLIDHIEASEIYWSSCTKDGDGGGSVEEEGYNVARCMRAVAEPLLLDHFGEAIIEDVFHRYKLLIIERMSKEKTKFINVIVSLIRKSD

[10] = read-out: KmBA (Km for benzoic acid)

With `O=C(O)/C=C/c1ccccc1O` [2-coumaric acid] as the molecule, how does the “BAMT activity with compound as substrate” value (BAMT [1]) read?
The value was “no activity was detected”.

With `[K+]` [K^+] as the molecule, how does the “Stimulation of BAMT activity (factor)” value (BAMT [2]) read?
The value was 2.

With `[Mg+2]` [Mg^2+] as the molecule, how does the “Effect on BAMT activity” value (BAMT [2]; 5 mM Mg2+ in the assay reaction) read?
The value was “not affected”.

Which “BAMT activity with compound as substrate” value (BAMT [1]) does the source give for `O=C(O)/C=C/c1cccc(O)c1` [3-coumaric acid] here?
The value was “no activity was detected”.

Which results are given for `OCc1ccccc1` [benzyl alcohol]?
BAMT activity with compound as substrate (BAMT [1]): no activity was detected; BAMT activity with compound as substrate (BAMT [1]; listed as benzylalcohol): no activity

With `O=C(O)/C=C/c1ccc(O)cc1` [4-coumaric acid] as the molecule, how does the “BAMT activity with compound as substrate” value (BAMT [1]) read?
Its value is “no activity was detected”.

Which results are given for `O=C(O)/C=C/c1ccccc1` [trans-cinnamic acid]?
BAMT activity with compound as substrate (BAMT [1]): no activity was detected; BAMT activity with compound as substrate (BAMT [3]): no activity

For `N` [NH4^+], which “Stimulation of BAMT activity (factor)” value (BAMT [2]) is on record?
The value was 2.

For `Nc1ncnc2c1ncn2[C@@H]1O[C@H](CSCC[C@H](N)C(=O)O)[C@@H](O)[C@H]1O` [SAH, S-adenosyl-L- homocysteine], which Ki (E. coli BAMT protein; Ki value of SAH for BA, noncompetitive with respect to BA, SAM fixed at 150 μM) is on record?
The Ki was 14 µM.

And the Ki (E. coli BAMT protein; Ki value of SAH for SAM, competitive with respect to SAM, BA fixed at 4 mM)?
Its Ki is 7 µM.

Which “BAMT activity with compound as substrate” value (BAMT [1]) does the source give for `O=C(O)c1cccc(O)c1` [3-hydroxybenzoic acid] here?
The value was “no activity was detected”.

Which “BAMT activity with compound as substrate” value (BAMT [1]) does the source give for `O=C(O)c1ccccc1O` [salicylic acid] here?
Its value is “no activity was detected”.

And the “BAMT activity with compound as substrate” value (BAMT [3])?
The value was “no activity”.

Which results are given for “S-adenosyl-L-methionine:benzoic acid carboxyl methyltransferase [BAMT]”?
Km (BAMT [4]; read-out: Km for SAM): 28 µM; Km (BAMT [4]; [10]): 1100 µM; Specific activity of purified BAMT protein (BAMT [5]): 327 pkat/mg protein; Percent of maximum activity (BAMT [6]; at both pH 6.5 and 8.5): 65%; Enzyme activity as percent of the optimal value (BAMT [6]; at pH 5.5 and 9.5): about 50%

With `O=C(O)c1ccc(O)cc1` [4-hydroxybenzoic acid] as the molecule, how does the “BAMT activity with compound as substrate” value (BAMT [1]) read?
Its value is “no activity was detected”.

B1: S-adenosyl-L-methionine:benzoic acid carboxyl methyltransferase (BAMT) from snapdragon (Antirrhinum majus) petals (enzyme)
chain: MKVMKKLLCMNIAGDGETSYANNSGLQKVMMSKSLHVLDETLKDIIGDHVGFPKCFKMMDMGCSSGPNALLVMSGIINTIEDLYTEKNINELPEFEVFLNDLPDNDFNNLFKLLSHENGNCFVYGLPGSFYGRLLPKKSLHFAYSSYSIHWLSQVPEGLEDNNRQNIYMATESPPEVYKAYAKQYERDFSTFLKLRGEEIVPGGRMVLTFNGRSVEDPSSKDDLAIFTLLAKTLVDMVAEGLVKMDDLYSFNIPIYSPCTREVEAAILSEGSFTLDRLEVFRVCWDASDYTDDDDQQDPSIFGKQRSGKFVADCVRAITEPMLASHFGSTIMDLLFGKYAKKIVEHLSVENSSYFSIVVSLSRR
notes: Native protein from upper and lower petal lobes; The native enzyme is reported as a homodimer (100 kDa by gel filtration, 49 kDa on SDS-PAGE); In the immunoblots it was the denatured monomer after SDS-PAGE; also called BAMT protein; plant BAMT
Does B1 bind [7]?
Result: binds

B2: Plant: BAMT protein purified from upper and lower petal lobes of snapdragon flowers (protein)
chain: MKVMKKLLCMNIAGDGETSYANNSGLQKVMMSKSLHVLDETLKDIIGDHVGFPKCFKMMDMGCSSGPNALLVMSGIINTIEDLYTEKNINELPEFEVFLNDLPDNDFNNLFKLLSHENGNCFVYGLPGSFYGRLLPKKSLHFAYSSYSIHWLSQVPEGLEDNNRQNIYMATESPPEVYKAYAKQYERDFSTFLKLRGEEIVPGGRMVLTFNGRSVEDPSSKDDLAIFTLLAKTLVDMVAEGLVKMDDLYSFNIPIYSPCTREVEAAILSEGSFTLDRLEVFRVCWDASDYTDDDDQQDPSIFGKQRSGKFVADCVRAITEPMLASHFGSTIMDLLFGKYAKKIVEHLSVENSSYFSIVVSLSRR
Which Vmax (BAMT [4]) does the source give for B2 here?
Its Vmax is 220 pkat/mg.

And the “kcat (turnover number of enzyme)” value (BAMT [4])?
The value was 0.02 s⁻¹.

What about the KmSAM (BAMT [4]) of the same molecule?
The KmSAM was 28 μm.

And the Km (BAMT [4]; read-out: Km for SAM)?
The Km was 28 µM.

And the Km (BAMT [4]; [10])?
Its Km is 1100 µM.

And the Km (BAMT [8])?
Its Km is 1000 µM.

B3: E. coli Met1: E. coli expressed snapdragon BAMT starting with the first methionine codon, N-terminal 6×His tag (protein, UniProt Q9FYZ9 1-364, looked up)
chain: MKVMKKLLCMNIAGDGETSYANNSGLQKVMMSKSLHVLDETLKDIIGDHVGFPKCFKMMDMGCSSGPNALLVMSGIINTIEDLYTEKNINELPEFEVFLNDLPDNDFNNLFKLLSHENGNCFVYGLPGSFYGRLLPKKSLHFAYSSYSIHWLSQVPEGLEDNNRQNIYMATESPPEVYKAYAKQYERDFSTFLKLRGEEIVPGGRMVLTFNGRSVEDPSSKDDLAIFTLLAKTLVDMVAEGLVKMDDLYSFNIPIYSPCTREVEAAILSEGSFTLDRLEVFRVCWDASDYTDDDDQQDPSIFGKQRSGKFVADCVRAITEPMLASHFGSTIMDLLFGKYAKKIVEHLSVENSSYFSIVVSLSRR
modifications: full-length N-terminal 6xHis tag
With B3 as the molecule, how does the Vmax (BAMT [4]) read?
The Vmax was 300 pkat/mg.

What about the “kcat (turnover number of enzyme)” value (BAMT [4]) of the same molecule?
The value was 0.03 s⁻¹.

And the KmSAM (BAMT [4])?
The KmSAM was 87 μm.

And the Km (BAMT [4]; read-out: Km for SAM)?
Its Km is 87 µM.

And the Km (BAMT [4]; [10])?
The Km was 1500 µM.

And the “Specific activity, crude lysates” value (BAMT [9]; E. coli BL21 (DE3) after IPTG induction)?
The value was 9 pkat/mg protein.

And the “Specific activity of purified recombinant enzyme” value (BAMT [9]; purified from E. coli)?
Its value is 135 pcat/mg protein.

And the “Specific activity, purified protein” value (BAMT [9]; purified from E. coli on nickel column)?
The value was 135 pkat/mg protein.

B4: SAM:salicylic acid carboxyl methyl transferase (protein, listed as Clarkia breweri)
chain: MDVRQVLHMKGGAGENSYAMNSFIQRQVISITKPITEAAITALYSGDTVTTRLAIADLGCSSGPNALFAVTELIKTVEELRKKMGRENSPEYQIFLNDLPGNDFNAIFRSLPIENDVDGVCFINGVPGSFYGRLFPRNTLHFIHSSYSLMWLSQVPIGIESNKGNIYMANTCPQSVLNAYYKQFQEDHALFLRCRAQEVVPGGRMVLTILGRRSEDRASTECCLIWQLLAMALNQMVSEGLIEEEKMDKFNIPQYTPSPTEVEAEILKEGSFLIDHIEASEIYWSSCTKDGDGGGSVEEEGYNVARCMRAVAEPLLLDHFGEAIIEDVFHRYKLLIIERMSKEKTKFINVIVSLIRKSD
notes: salicylic acid carboxyl methyl transferase from C. breweri
For B4, which Km (SAMT; read-out: Km value for BA) is on record?
Its Km is 190 µM.

And the Km (SAMT; read-out: Km value for SA)?
Its Km is 24 µM.

What about the Km (SAMT; read-out: Km value for SAM) of the same molecule?
The Km was 9 µM.
